In the Human Domainome abundance scans (Beltran et al. 2025) one finds abundance fitness data, which are given here for 39 variants.

B1: Histone H1t, residues 44 to 112; numbered along this chain, P22492 (parent)
chain: VSKLITEALSVSQERVGMSLVALKKALAAAGYDVEKNNSRIKLSLKSLVNKGILVQTRGTGASGSFKLS

± gives the uncertainty stated by the source.

Variants of B1 are the subject of the data set. The experiment in a line: abundance fitness (aPCA) (normalised: wild type 0, dead -1); higher = more abundant; growth selection in yeast, the domain comes from the species named. As to conditions: Homo sapiens.
Turning to VSKLITEALSVSQERVGMSLVALKKALAAAGYDVEKNNSRIKLSPKSLVNKGILVQTRGTGASGSFKLS [L45P], the abundance fitness is -0.46 ± 0.049.

As for VSKLITEALSVSQERVGMSLVALKKALAAAGYDVEKNNSRIKLSHKSLVNKGILVQTRGTGASGSFKLS [L45H], the abundance fitness is -1.2 ± 0.48.

With VSKLITEALSVSQERVGMSLVALKKALAAAGYDVEKNNSRIKLSMKSLVNKGILVQTRGTGASGSFKLS [L45M], the abundance fitness is -0.386 ± 0.089.

In the case of VSKLITEALSVSQERVGMSLVALKKALAAAGYDVEKNNSRIKLSCKSLVNKGILVQTRGTGASGSFKLS [L45C], the abundance fitness is -0.425 ± 0.21.

On to VSKLITEALSVSQERVGMSLVALKKALAAAGYDVEKNNSRIKLSTKSLVNKGILVQTRGTGASGSFKLS [L45T], for which the abundance fitness is -0.63 ± 0.062.

With VSKLITEALSVSQERVGMSLVALKKALAAAGYDVEKNNSRIKLSFKSLVNKGILVQTRGTGASGSFKLS [L45F], the abundance fitness was -0.372 ± 0.081.

On to VSKLITEALSVSQERVGMSLVALKKALAAAGYDVEKNNSRIKLSQKSLVNKGILVQTRGTGASGSFKLS [L45Q], for which the abundance fitness was -0.782 ± 0.24.

As to VSKLITEALSVSQERVGMSLVALKKALAAAGYDVEKNNSRIKLSGKSLVNKGILVQTRGTGASGSFKLS [L45G], the abundance fitness was -0.574 ± 0.15.

On to VSKLITEALSVSQERVGMSLVALKKALAAAGYDVEKNNSRINLSLKSLVNKGILVQTRGTGASGSFKLS [K42N], for which the abundance fitness is -0.379 ± 0.19.

Consider VSKLITEALSVSQERVGMSLVALKKALAAAGYDVEKNNSRISLSLKSLVNKGILVQTRGTGASGSFKLS [K42S], for which the abundance fitness was -0.108 ± 0.031.

For VSKLITEALSVSQERVGMSLVALKKALAAAGYDVEKNNSRIFLSLKSLVNKGILVQTRGTGASGSFKLS [K42F], the abundance fitness was -0.413 ± 0.12.

Regarding VSKLITEALSVSQERVGMSLVALKKALAAAGYDVEKNNSRIVLSLKSLVNKGILVQTRGTGASGSFKLS [K42V], the abundance fitness is -0.024 ± 0.028.

On to VSKLITEALSVSQERVGMSLVALKKALAAAGYDVEKNNSRIILSLKSLVNKGILVQTRGTGASGSFKLS [K42I], for which the abundance fitness was found to be 0.094 ± 0.12.

As to VSKLITEALSVSQERVGMSLVALKKALAAAGYDVEKNNSRIYLSLKSLVNKGILVQTRGTGASGSFKLS [K42Y], the abundance fitness was -0.138 ± 0.086.

On to VSKLITEALSVSQERVGMSLVALKKALAAAGYDVEKNNSRITLSLKSLVNKGILVQTRGTGASGSFKLS [K42T], for which the abundance fitness is -0.045 ± 0.035.

For the variant VSKLITEALSVSQERVGMSLVALKKALAAAGYDVEKNNSRIMLSLKSLVNKGILVQTRGTGASGSFKLS [K42M], the abundance fitness came to 0.14 ± 0.05.

With VSKLITEALSVSQERVGMSLVALKKALAAAGYDVEKNNSRIPLSLKSLVNKGILVQTRGTGASGSFKLS [K42P], the abundance fitness was -0.682 ± 0.029.

Regarding VSKLITEALSVSQERVGMSLVALKKALAAAGYDVEKNNSRIRLSLKSLVNKGILVQTRGTGASGSFKLS [K42R], the abundance fitness is -0.125 ± 0.041.

On to VSKLITEALSVSQERVGMSLVALKKALAAAGYDVEKNNSRILLSLKSLVNKGILVQTRGTGASGSFKLS [K42L], for which the abundance fitness was 0.048 ± 0.031.

As for VSKLITEALSVSQERVGMSLVALKKALAAAGYDVEKNNSRIGLSLKSLVNKGILVQTRGTGASGSFKLS [K42G], the abundance fitness was -0.188 ± 0.039.

With VSKLITEALSVSQERVGMSLVALKKALAAAGYDVEKNNSRIHLSLKSLVNKGILVQTRGTGASGSFKLS [K42H], the abundance fitness is -0.158 ± 0.073.

For the variant VSKLITEALSVSQERVGMSLVALKKALAAAGYDVEKNNSRIKLSLCSLVNKGILVQTRGTGASGSFKLS [K46C], the abundance fitness is -0.628 ± 0.15.

Regarding VSKLITEALSVSQERVGMSLVALKKALAAAGYDVEKNNSRIKLSLASLVNKGILVQTRGTGASGSFKLS [K46A], the abundance fitness is -0.01 ± 0.067.

With VSKLITEALSVSQERVGMSLVALKKALAAAGYDVEKNNSRIKLSLHSLVNKGILVQTRGTGASGSFKLS [K46H], the abundance fitness was -0.35 ± 0.12.

In the case of VSKLITEALSVSQERVGMSLVALKKALAAAGYDVEKNNSRIKLSLISLVNKGILVQTRGTGASGSFKLS [K46I], the abundance fitness is -0.129 ± 0.056.

For VSKLITEALSVSQERVGMSLVALKKALAAAGYDVEKNNSRIKLSLWSLVNKGILVQTRGTGASGSFKLS [K46W], the abundance fitness is -0.418 ± 0.094.

VSKLITEALSVSQERVGMSLVALKKALAAAGYDVEKNNSRIKLSLMSLVNKGILVQTRGTGASGSFKLS [K46M]: the abundance fitness was -0.23 ± 0.038.

As for VSKLITEALSVSQERVGMSLVALKKALAAAGYDVEKNNSRIKLSLPSLVNKGILVQTRGTGASGSFKLS [K46P], the abundance fitness was -0.841 ± 0.07.

For VSKLITEALSVSQERVGMSLVALKKALAAAGYDVEKNNSRIKLSLNSLVNKGILVQTRGTGASGSFKLS [K46N], the abundance fitness was -0.489 ± 0.11.

Regarding VSKLITEALSVSQERVGMSLVALKKALAAAGYDVEKNNSRIKLSLGSLVNKGILVQTRGTGASGSFKLS [K46G], the abundance fitness was -0.875 ± 0.16.

VSKLITEALSVSQERVGMSLVALKKALAAAGYDVEKNNSRIKLSLVSLVNKGILVQTRGTGASGSFKLS [K46V]: the abundance fitness was -0.197 ± 0.065.

VSKLITEALSVSQERVGMSLVALKKALAAAGYDVEKNNSRIKLSLSSLVNKGILVQTRGTGASGSFKLS [K46S]: the abundance fitness is -0.332 ± 0.041.

For the variant VSKLITEALSVSQERVGMSLVALKKALAAAGYDVEKNNSRIKLSLESLVNKGILVQTRGTGASGSFKLS [K46E], the abundance fitness was -0.053 ± 0.14.

With VSKLITEALSVSQERVGMSLVALKKALAAAGYDVEKNNSRIKLSLTSLVNKGILVQTRGTGASGSFKLS [K46T], the abundance fitness is -0.209 ± 0.079.

Take VSKLITEALSVSQERVGMSLVALKKALAAAGYDVEKNNSRIKLSLQSLVNKGILVQTRGTGASGSFKLS [K46Q]: the abundance fitness was -0.226 ± 0.066.

For VSKLITEALSVSQERVGMSLVALKKALAAAGYDVEKNNSRIKLSLYSLVNKGILVQTRGTGASGSFKLS [K46Y], the abundance fitness was -0.895 ± 0.14.

For the variant VSKLITEALSVSQERVGMSLVALKKALAAAGYDVEKNNSRIKLSLRSLVNKGILVQTRGTGASGSFKLS [K46R], the abundance fitness was -0.053 ± 0.066.

VSKLITEALSVSQERVGMSLVALKKALAAAGYDVEKNNSRIKLSLDSLVNKGILVQTRGTGASGSFKLS [K46D]: the abundance fitness was -0.329 ± 0.28.

On to VSKLITEALSVSQERVGMSLVALKKALAAAGYDVEKNNSRIKLSLLSLVNKGILVQTRGTGASGSFKLS [K46L], for which the abundance fitness is -0.178 ± 0.029.
